From paper PMC3569449

Key:
[1] = target: N-terminal cytoplasmic domain of the a1 isoform of subunit a of human V-ATPase (residues 1-353) (human) (UniProt Q93050); experiment: SPR; Biacore T100; C1, H or a1NT amine-coupled to CM5; 20 mM HEPES-NaOH, 300 mM NaCl, 1 mM DTT, 0.05% P20, pH 7.5, 10°C; KD from steady-state Req against analyte concentration, 1:1 Langmuir isotherm
[2] = target: Human V-ATPase subunit C1 (human) (UniProt P21283); experiment: SPR; C1 immobilised on CM5; response at 10 µM analyte (E1G1, a1NT, or both together)
Chain of Human V-ATPase subunit C1 (human) (P21283 whole entry): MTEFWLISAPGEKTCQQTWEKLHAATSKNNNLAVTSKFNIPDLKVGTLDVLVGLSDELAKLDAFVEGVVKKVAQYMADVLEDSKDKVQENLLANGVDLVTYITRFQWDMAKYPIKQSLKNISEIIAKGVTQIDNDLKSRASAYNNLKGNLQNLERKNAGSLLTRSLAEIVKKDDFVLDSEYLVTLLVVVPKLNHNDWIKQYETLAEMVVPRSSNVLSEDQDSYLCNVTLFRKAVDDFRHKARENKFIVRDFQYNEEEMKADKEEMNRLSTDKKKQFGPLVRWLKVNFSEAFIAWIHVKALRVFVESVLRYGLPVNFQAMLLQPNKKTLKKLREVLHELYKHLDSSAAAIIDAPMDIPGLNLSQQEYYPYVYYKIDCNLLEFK

[3] = target: Human V-ATPase subunit C1 (human) (UniProt P21283); experiment: SPR; Biacore T100; C1, H or a1NT amine-coupled to CM5; 20 mM HEPES-NaOH, 300 mM NaCl, 1 mM DTT, 0.05% P20, pH 7.5, 10°C; KD from steady-state Req against analyte concentration, 1:1 Langmuir isotherm
[4] = target: Human V-ATPase subunit H (non-tagged) (human) (UniProt Q9UI12); experiment: as above
Chain of Human V-ATPase subunit H (non-tagged) (human) (Q9UI12 whole entry): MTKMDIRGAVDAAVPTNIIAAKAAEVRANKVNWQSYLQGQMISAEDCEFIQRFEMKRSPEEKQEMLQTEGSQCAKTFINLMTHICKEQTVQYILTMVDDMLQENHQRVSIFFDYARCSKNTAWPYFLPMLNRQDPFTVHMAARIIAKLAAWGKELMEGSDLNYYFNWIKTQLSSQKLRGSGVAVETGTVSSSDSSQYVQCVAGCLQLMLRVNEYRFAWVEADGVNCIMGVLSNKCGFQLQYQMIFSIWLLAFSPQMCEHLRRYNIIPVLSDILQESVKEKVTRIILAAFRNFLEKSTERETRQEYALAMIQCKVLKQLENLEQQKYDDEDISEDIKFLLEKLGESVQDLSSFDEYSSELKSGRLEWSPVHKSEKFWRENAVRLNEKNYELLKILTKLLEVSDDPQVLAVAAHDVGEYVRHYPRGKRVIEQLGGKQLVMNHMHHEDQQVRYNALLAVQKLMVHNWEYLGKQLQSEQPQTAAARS

[5] = target: V-ATPase a NT (Saccharomyces cerevisiae) (UniProt P32563); experiment: ITC; conditions: cited from earlier work
Chain of V-ATPase a NT (Saccharomyces cerevisiae) (P32563 104-372): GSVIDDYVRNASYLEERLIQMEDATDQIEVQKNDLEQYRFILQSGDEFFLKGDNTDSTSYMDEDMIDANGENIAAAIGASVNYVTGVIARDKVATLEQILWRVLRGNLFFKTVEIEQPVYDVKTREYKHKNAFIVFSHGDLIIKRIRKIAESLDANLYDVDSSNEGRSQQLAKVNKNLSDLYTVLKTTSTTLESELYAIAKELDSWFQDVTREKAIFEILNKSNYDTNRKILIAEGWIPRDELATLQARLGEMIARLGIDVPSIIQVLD

Chain of N-terminal cytoplasmic domain of the a1 isoform of subunit a of human V-ATPase (residues 1-353) (human) (Q93050 1-353): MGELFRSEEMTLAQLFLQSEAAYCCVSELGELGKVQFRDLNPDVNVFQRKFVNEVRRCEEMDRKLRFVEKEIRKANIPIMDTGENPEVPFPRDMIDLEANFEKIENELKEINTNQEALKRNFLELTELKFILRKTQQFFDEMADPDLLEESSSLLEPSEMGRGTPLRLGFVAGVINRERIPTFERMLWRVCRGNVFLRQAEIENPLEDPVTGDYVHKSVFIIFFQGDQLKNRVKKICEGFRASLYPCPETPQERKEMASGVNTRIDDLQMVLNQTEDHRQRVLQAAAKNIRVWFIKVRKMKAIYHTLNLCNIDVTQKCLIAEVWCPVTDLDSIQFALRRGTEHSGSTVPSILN
Chain of V-ATPase C foot (P31412 2-157): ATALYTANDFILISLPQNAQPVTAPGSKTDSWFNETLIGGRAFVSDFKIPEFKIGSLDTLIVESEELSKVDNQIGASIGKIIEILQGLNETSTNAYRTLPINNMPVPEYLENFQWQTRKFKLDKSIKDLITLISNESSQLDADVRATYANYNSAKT
Chain of V-ATPase C foot (P31412 278-392): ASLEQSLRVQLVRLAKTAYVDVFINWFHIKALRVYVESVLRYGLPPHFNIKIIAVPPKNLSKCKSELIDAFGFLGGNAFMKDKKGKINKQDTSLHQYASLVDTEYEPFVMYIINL
Chain of V-ATPase EG (P22203 2-233): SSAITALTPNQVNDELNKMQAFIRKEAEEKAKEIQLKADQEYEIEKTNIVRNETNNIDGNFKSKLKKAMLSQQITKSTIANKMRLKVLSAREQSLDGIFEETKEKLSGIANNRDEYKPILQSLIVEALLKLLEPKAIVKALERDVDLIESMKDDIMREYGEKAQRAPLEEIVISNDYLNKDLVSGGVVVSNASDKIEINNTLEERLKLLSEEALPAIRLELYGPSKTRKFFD
Chain of V-ATPase EG (P48836 2-114, further chain): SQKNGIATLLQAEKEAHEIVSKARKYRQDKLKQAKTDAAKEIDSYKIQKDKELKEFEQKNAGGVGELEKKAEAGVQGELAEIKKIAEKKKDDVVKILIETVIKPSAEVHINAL

Kd [4] [nM] | Substance | Kd [5] [µM] | other results
 | E1G1 heterodimer of human V-ATPase (subunits E1 and G1, co-expressed and co-purified) (from UniProt P36543 1-226; O75348 1-118) (complex) |  | Kd [1]: 210 nM
360 | N-terminal cytoplasmic domain of the a1 isoform of subunit a of human V-ATPase (residues 1-353) (from UniProt Q93050 1-353) (domain or fragment) |  | response at 10 µM analyte [2]: 45 RU; Kd [3]: 3000 nM
 | V-ATPase C foot (from UniProt P31412) | 22 | 
1400 | Human V-ATPase subunit C1 (from UniProt P21283 1-382) (natural protein) |  | 
 | V-ATPase EG (from UniProt P22203) | 33 | 
